B1: SI-95X12 (antibody)
chain 1: not shown
chain 2: QVQLQQSGAEVKKPGSSVKVSCKASGYTFTNYYIYWVRQAPGQGLEWIGGINPTSGGSNFNEKFKTRVTITADESSTTAYMELSSLRSEDTAFYFCTRQGLWFDSDGRGFDFWGQGTTVTVSSGGGGSGGGGSGGGGSDIQMTQSPSSLSASVGDRVTITCRSSQNIVHSNGNTYLDWYQQTPGKAPKLLIYKVSNRFSGVPSRFSGSGSGTDFTFTISSLQPEDIATYYCFQYSHVPWTFGQGTKLQITGGGGSGSGSGGGGGSGGGGSGGGGSDILMTQSPSSMSVSLGDTVSITCHSSQDINSNIGWLQQRPGKSFKGLIYHGTNLDDEVPSRFSGSGSGADYSLTISSLESEDFADYYCVQYAQFPWTFGGGTKLEIKRTVAAPSVFIFPPSDEQLKSGTASVVCLLNNFYPREAKVQWKVDNALQSGNSQESVTEQDSKDSTYSLSSTLTLSKADYEKHKVYACEVTHQGLSSPVTKSFNRGEC
B2: SI-95X9 (antibody)
chain 1: not shown
chain 2: DILMTQSPSSMSVSLGDTVSITCHSSQDINSNIGWLQQRPGKSFKGLIYHGTNLDDEVPSRFSGSGSGADYSLTISSLESEDFADYYCVQYAQFPWTFGGGTKLEIKRTVAAPSVFIFPPSDEQLKSGTASVVCLLNNFYPREAKVQWKVDNALQSGNSQESVTEQDSKDSTYSLSSTLTLSKADYEKHKVYACEVTHQGLSSPVTKSFNRGEC
B3: SI-95X10 (antibody)
chain 1: not shown
chain 2: B2 chain 2
B4: SI-95X5 (antibody)
chain 1: not shown
chain 2: B2 chain 2
B5: SI-95X8 (antibody)
chain 1: not shown
chain 2: B2 chain 2
B6: SI-95X4 (antibody)
chain 1: not shown
chain 2: B2 chain 2
B7: SI-95X6 (antibody)
chain 1: not shown
chain 2: B2 chain 2
B8: SI-95X7 (antibody)
chain 1: not shown
chain 2: B2 chain 2
B9: SI-95X15 (antibody)
chain 1: not shown
chain 2: DIQMTQSPSSLSASVGDRVTITCRSSQNIVHSNGNTYLDWYQQTPGKAPKLLIYKVSNRFSGVPSRFSGSGSGTDFTFTISSLQPEDIATYYCFQYSHVPWTFGQGTKLQITGGGGSGGGGSGGGGSQVQLQQSGAEVKKPGSSVKVSCKASGYTFTNYYIYWVRQAPGQGLEWIGGINPTSGGSNFNEKFKTRVTITADESSTTAYMELSSLRSEDTAFYFCTRQGLWFDSDGRGFDFWGQGTTVTVSSGGGGSGSGSGGGGGSGGGGSGGGGSDILMTQSPSSMSVSLGDTVSITCHSSQDINSNIGWLQQRPGKSFKGLIYHGTNLDDEVPSRFSGSGSGADYSLTISSLESEDFADYYCVQYAQFPWTFGGGTKLEIKRTVAAPSVFIFPPSDEQLKSGTASVVCLLNNFYPREAKVQWKVDNALQSGNSQESVTEQDSKDSTYSLSSTLTLSKADYEKHKVYACEVTHQGLSSPVTKSFNRGEC
B10: SI-95X13 (antibody)
chain 1: not shown
chain 2: QVQLQQSGAEVKKPGSSVKVSCKASGYTFTNYYIYWVRQAPGQGLEWIGGINPTSGGSNFNEKFKTRVTITADESSTTAYMELSSLRSEDTAFYFCTRQGLWFDSDGRGFDFWGQGTTVTVSSGGGGSGGGGSGGGGSDIQMTQSPSSLSASVGDRVTITCRSSQNIVHSNGNTYLDWYQQTPGKAPKLLIYKVSNRFSGVPSRFSGSGSGTDFTFTISSLQPEDIATYYCFQYSHVPWTFGQGTKLQITGGGGSGGGGSGSGSGGGGGSGGGGSGGGGSDILMTQSPSSMSVSLGDTVSITCHSSQDINSNIGWLQQRPGKSFKGLIYHGTNLDDEVPSRFSGSGSGADYSLTISSLESEDFADYYCVQYAQFPWTFGGGTKLEIKRTVAAPSVFIFPPSDEQLKSGTASVVCLLNNFYPREAKVQWKVDNALQSGNSQESVTEQDSKDSTYSLSSTLTLSKADYEKHKVYACEVTHQGLSSPVTKSFNRGEC
B11: SI-95X11 (antibody)
chain 1: not shown
chain 2: QVQLQQSGAEVKKPGSSVKVSCKASGYTFTNYYIYWVRQAPGQGLEWIGGINPTSGGSNFNEKFKTRVTITADESSTTAYMELSSLRSEDTAFYFCTRQGLWFDSDGRGFDFWGQGTTVTVSSGGGGSGGGGSGGGGSDIQMTQSPSSLSASVGDRVTITCRSSQNIVHSNGNTYLDWYQQTPGKAPKLLIYKVSNRFSGVPSRFSGSGSGTDFTFTISSLQPEDIATYYCFQYSHVPWTFGQGTKLQITSGSGSGGGGGSGGGGSGGGGSDILMTQSPSSMSVSLGDTVSITCHSSQDINSNIGWLQQRPGKSFKGLIYHGTNLDDEVPSRFSGSGSGADYSLTISSLESEDFADYYCVQYAQFPWTFGGGTKLEIKRTVAAPSVFIFPPSDEQLKSGTASVVCLLNNFYPREAKVQWKVDNALQSGNSQESVTEQDSKDSTYSLSSTLTLSKADYEKHKVYACEVTHQGLSSPVTKSFNRGEC
B12: SI-95X16 (antibody)
chain 1: not shown
chain 2: DIQMTQSPSSLSASVGDRVTITCRSSQNIVHSNGNTYLDWYQQTPGKAPKLLIYKVSNRFSGVPSRFSGSGSGTDFTFTISSLQPEDIATYYCFQYSHVPWTFGQGTKLQITGGGGSGGGGSGGGGSQVQLQQSGAEVKKPGSSVKVSCKASGYTFTNYYIYWVRQAPGQGLEWIGGINPTSGGSNFNEKFKTRVTITADESSTTAYMELSSLRSEDTAFYFCTRQGLWFDSDGRGFDFWGQGTTVTVSSGGGGSGGGGSGSGSGGGGGSGGGGSGGGGSDILMTQSPSSMSVSLGDTVSITCHSSQDINSNIGWLQQRPGKSFKGLIYHGTNLDDEVPSRFSGSGSGADYSLTISSLESEDFADYYCVQYAQFPWTFGGGTKLEIKRTVAAPSVFIFPPSDEQLKSGTASVVCLLNNFYPREAKVQWKVDNALQSGNSQESVTEQDSKDSTYSLSSTLTLSKADYEKHKVYACEVTHQGLSSPVTKSFNRGEC
B13: SI-95X14 (antibody)
chain 1: not shown
chain 2: DIQMTQSPSSLSASVGDRVTITCRSSQNIVHSNGNTYLDWYQQTPGKAPKLLIYKVSNRFSGVPSRFSGSGSGTDFTFTISSLQPEDIATYYCFQYSHVPWTFGQGTKLQITGGGGSGGGGSGGGGSQVQLQQSGAEVKKPGSSVKVSCKASGYTFTNYYIYWVRQAPGQGLEWIGGINPTSGGSNFNEKFKTRVTITADESSTTAYMELSSLRSEDTAFYFCTRQGLWFDSDGRGFDFWGQGTTVTVSSSGSGSGGGGGSGGGGSGGGGSDILMTQSPSSMSVSLGDTVSITCHSSQDINSNIGWLQQRPGKSFKGLIYHGTNLDDEVPSRFSGSGSGADYSLTISSLESEDFADYYCVQYAQFPWTFGGGTKLEIKRTVAAPSVFIFPPSDEQLKSGTASVVCLLNNFYPREAKVQWKVDNALQSGNSQESVTEQDSKDSTYSLSSTLTLSKADYEKHKVYACEVTHQGLSSPVTKSFNRGEC

molecular target: EGFRvIII (human, UniProt P00533); assay: BLI

| Kd | Binder |
| --- | --- |
| 7.8 nM | B1 |
| 6.16 nM | B2 |
| 7 nM | B3 |
| 7.94 nM | B4 |
| 6.97 nM | B5 |
| 5.52 nM | B6 |
| 6.35 nM | B7 |
| 8.41 nM | B8 |
| 0.175 nM | B9 |
| 8.77 nM | B10 |
| 4.87 nM | B11 |
| 19.4 nM | B12 |
| 0.428 nM | B13 |

— patent US20260337278 (published 2026)
